The source of these data is patent US20110311507.

Data set [1] has as its target T1, V5-tagged wild type murine Siae (UniProt P70665).
T1 sequence: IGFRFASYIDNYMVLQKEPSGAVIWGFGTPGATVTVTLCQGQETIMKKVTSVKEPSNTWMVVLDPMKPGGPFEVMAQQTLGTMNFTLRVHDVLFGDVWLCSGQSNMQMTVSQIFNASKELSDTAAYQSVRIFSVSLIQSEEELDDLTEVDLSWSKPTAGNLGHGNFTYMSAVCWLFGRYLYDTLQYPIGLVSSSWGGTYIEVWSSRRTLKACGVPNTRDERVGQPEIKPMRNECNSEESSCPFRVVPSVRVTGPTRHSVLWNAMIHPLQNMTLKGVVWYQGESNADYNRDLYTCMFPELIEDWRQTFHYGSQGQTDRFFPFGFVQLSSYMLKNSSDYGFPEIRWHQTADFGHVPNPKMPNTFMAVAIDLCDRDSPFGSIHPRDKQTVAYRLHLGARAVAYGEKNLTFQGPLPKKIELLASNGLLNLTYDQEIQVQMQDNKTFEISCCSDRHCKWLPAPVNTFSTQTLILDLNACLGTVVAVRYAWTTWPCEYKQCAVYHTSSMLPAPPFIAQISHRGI

The target in data set [2] is T2, V5-tagged wild type murine Siae, P70665.
T2 chain: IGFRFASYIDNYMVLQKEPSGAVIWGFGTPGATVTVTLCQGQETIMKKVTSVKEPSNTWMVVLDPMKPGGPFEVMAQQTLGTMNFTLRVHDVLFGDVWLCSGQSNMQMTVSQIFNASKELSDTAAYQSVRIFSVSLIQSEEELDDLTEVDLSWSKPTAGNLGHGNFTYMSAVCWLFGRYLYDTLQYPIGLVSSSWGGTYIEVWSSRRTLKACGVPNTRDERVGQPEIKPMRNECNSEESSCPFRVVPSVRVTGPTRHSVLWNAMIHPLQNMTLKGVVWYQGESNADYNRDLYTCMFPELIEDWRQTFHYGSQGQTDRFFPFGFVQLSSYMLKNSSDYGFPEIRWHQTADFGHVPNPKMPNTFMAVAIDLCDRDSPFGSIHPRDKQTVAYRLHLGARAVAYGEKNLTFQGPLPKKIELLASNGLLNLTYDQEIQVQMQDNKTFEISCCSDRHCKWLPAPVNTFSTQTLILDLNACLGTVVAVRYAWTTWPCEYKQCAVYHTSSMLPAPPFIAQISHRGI

FLAG-tagged murine Q335P SIAE: in data set [1], the “enzyme activity of V5 tagged wild type SIAE in co-transfectants, as a function of its protein level” value was “function in a dominant interfering fashion”.
For FLAG-tagged murine F430S Siae, the “enzyme activity of V5-tagged wild type Siae in co-transfectants, as a function of its protein level” value in data set [1] was “function in a dominant interfering fashion”.
Regarding FLAG-tagged murine R505C Siae, the “enzyme activity of V5-tagged wild type Siae in co-transfectants, as a function of its protein level” value in data set [1] is “function in a dominant interfering fashion”.
FLAG-tagged K426N Siae: the “enzyme activity of V5-tagged WT Siae in co-transfectants, as a function of its protein level” value in data set [1] is on record as “lacks dominant negative activity”.
In the case of FLAG-tagged murine T338M SIAE, in data set [1], the “enzyme activity of V5 tagged wild type SIAE in co-transfectants, as a function of its protein level” value is reported as “function in a dominant interfering fashion”.
With FLAG-tagged murine Y375C Siae, in data set [1], the “enzyme activity of V5-tagged wild type Siae in co-transfectants, as a function of its protein level” value is given as “function in a dominant interfering fashion”.

B1: FLAG-tagged murine C196F SIAE (protein)
chain: IGFRFASYIDNYMVLQKEPSGAVIWGFGTPGATVTVTLCQGQETIMKKVTSVKEPSNTWMVVLDPMKPGGPFEVMAQQTLGTMNFTLRVHDVLFGDVWLCSGQSNMQMTVSQIFNASKELSDTAAYQSVRIFSVSLIQSEEELDDLTEVDLSWSKPTAGNLGHGNFTYMSAVFWLFGRYLYDTLQYPIGLVSSSWGGTYIEVWSSRRTLKACGVPNTRDERVGQPEIKPMRNECNSEESSCPFRVVPSVRVTGPTRHSVLWNAMIHPLQNMTLKGVVWYQGESNADYNRDLYTCMFPELIEDWRQTFHYGSQGQTDRFFPFGFVQLSSYMLKNSSDYGFPEIRWHQTADFGHVPNPKMPNTFMAVAIDLCDRDSPFGSIHPRDKQTVAYRLHLGARAVAYGEKNLTFQGPLPKKIELLASNGLLNLTYDQEIQVQMQDNKTFEISCCSDRHCKWLPAPVNTFSTQTLILDLNACLGTVVAVRYAWTTWPCEYKQCAVYHTSSMLPAPPFIAQISHRGI
On to B1, for which the “enzyme activity of V5 tagged wild type SIAE in co-transfectants, as a function of its protein level” value in data set [2] is “function in a dominant interfering fashion”.

B2: FLAG-tagged murine G212R Siae (protein)
chain: IGFRFASYIDNYMVLQKEPSGAVIWGFGTPGATVTVTLCQGQETIMKKVTSVKEPSNTWMVVLDPMKPGGPFEVMAQQTLGTMNFTLRVHDVLFGDVWLCSGQSNMQMTVSQIFNASKELSDTAAYQSVRIFSVSLIQSEEELDDLTEVDLSWSKPTAGNLGHGNFTYMSAVCWLFGRYLYDTLQYPIRLVSSSWGGTYIEVWSSRRTLKACGVPNTRDERVGQPEIKPMRNECNSEESSCPFRVVPSVRVTGPTRHSVLWNAMIHPLQNMTLKGVVWYQGESNADYNRDLYTCMFPELIEDWRQTFHYGSQGQTDRFFPFGFVQLSSYMLKNSSDYGFPEIRWHQTADFGHVPNPKMPNTFMAVAIDLCDRDSPFGSIHPRDKQTVAYRLHLGARAVAYGEKNLTFQGPLPKKIELLASNGLLNLTYDQEIQVQMQDNKTFEISCCSDRHCKWLPAPVNTFSTQTLILDLNACLGTVVAVRYAWTTWPCEYKQCAVYHTSSMLPAPPFIAQISHRGI
With B2, the “enzyme activity of V5-tagged wild type Siae in co-transfectants, as a function of its protein level” value in data set [2] is “function in a dominant interfering fashion”.
